Assay results from the supplement of paper PMC9170038.

tested on: MS2 coat protein; test: apparent KD of MS2 coat protein; higher = weaker reporter binding; details: Eterna round: R107; input ligand: theophylline 2 mM
Method: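 RNA-MaP round R107: designed RNA switches with theophylline, tryptophan, arginine or FMN aptamers are transcribed on-chip within common flanks. They are titrated with SNAP-549-labelled MS2 coat protein in RNA-MaP buffer (100 mM Tris pH 7.5, 80 mM KCl, 4 mM MgCl2), without ligand or with the indicated ligand. Median apparent KD per design.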

Row | Sequence | apparent KD of MS2 coat protein [nM]
1 | UGUAUGGACUGAAGGAGCGGGUUGAUAACAUGAGGAUCACCCAUGUAAAAGGCGAAAGCCGCCCAGGUAGGUCGCAGUCCAUACU | 13.1
2 | UCGCUCUGGGUGAAUUCCGGAGAUGUGGAAGGAGCGGACGAAAGUCCAGGUAGGUCGCCAUCGAACAUGAGGAUCACCCAUGUAC [Same State - Arginine A (Freestyle 24)] | 165
3 | UGGGUUGGACCAGGAAAUGGUCUGACGCACCGAGGACCGGUACGGCCGCCACUCGGCCGUACAUGAGGAUCACCCAUGUCGGUGU [#1 Same State - Tryptophan A Attempt #13 (HarryS)] | 1170
4 | ACCUGUACGAAAAGUGCAGGACAUGGAAAUCGAGGACCGGUACGGCCGCCACUCGUAUAAAACAAGUGGAUCACCCUUGUCCAUG [TrypAS 2 #AlternativeMS2 #Zipper #StaticStem] | 1500
5 | GCACGACAUGAGGAUCACCCAUGUGCAGAUACCAGUAAUGUAUAUUACCCUUGGCAGCUGAGUAGGUCUGGAGGGCUAUAGGUAA [Same State Theophylline A GF11] | 15.4
6 | UAUCGUCAGACGGCCGCCACUAGAACAUGAGGAUCACCCAUGUAGGCGGCCGAUUCCUCAUUAACUAGGACCGGGUCUGACGAAU [(Trp1)-(Ms2)-(T)'-(M)'-(Trp2)_Design11] | 9.76
7 | CCAUGCGUAGGAAGGAGCGCAUACUUCACAUGAGGAUCACCCAUGUCGAGACGUGAGUCAGUGCAGGUAGGUCGCCUACGCAUGG [Same State - Arginine B (Freestyle 27)] | 20.6

same assay, conditions: Eterna round: R107; input ligand: tryptophan 2.4 mM

Row | Sequence | apparent KD of MS2 coat protein [nM]
8 | ACAUGAGGAUCACCCAUGUUGAGCACAGAAGGAGCGUGAUUAAGCACAGGUAGGUCGCUGUACUUAUCGAGCGUUAGCUCGAUAC [JR_Nu_SSArginiA_Sub030] | 22.8
9 | ACAUGAGGAUCACCCAUGUACAUGAGGGAAGGAGCGGUACAUGAGCCAGGUAGGUCGCCCAUGAGCAUCAGCCAUGUACAUCAGC [vv,mmullin] | 75.7
10 | AAUAAUAGGUGAUCUUAAGUCGUACCGUAACGAGGACCGGUACGGCCGCCACUCGAACAUGAGGAUCACCCAUGUAUGUAUGAUA [whbob_SS_trypto A_f5] | 80.7
11 | UGUAUGUGAUUUGAUACCAGACCAGCUGGUGGUACAUGAGGAUCACCCAUGUAGGUUUGGGUCCCUUGGCAGCAAAUCGCAUACU [SSTheo B #24] | 44
12 | CAGGCCUUGCCCGGUGUUCCGAAAGUGGAAGGAGCGCACAUUGGUGCAGGUAGGUCGCCACAUGAGGAUCACCCAUGUCUAGGCC [Aveatti] | 50.2
13 | AGCGACAUGCGUGAUACCAGCUACAUGAGGAUCACCCAUGUAAGUAGGAAACUACUGUGUAGCCCUUGGCAGCACAAUGCAUGUC [Exclusion - Theophylline B (Freestyle 24)] | 20
14 | ACCUGUACGAAAAGUGCAGGACAUGGUAAACGAGGACCGGUACGGCCGCCACUCGAAUAACAAGUGGAUCACCCUUGUAACCAUG [TrypAS 5 #AlternativeMS2 #Zipper #StaticStem] | 1090
15 | AAGAUACUCUGAAGGAGCGUCAUAAAACAUGAGGAUCACCCAUGUGCGCGGGUGUAAUUAUGACAGGUAGGUCGCAGAGUAUUUA [Arg B SS t2] | 442
16 | GCCAAAGGCUACAUGAGGAUCACCCAUGUACGAGGACCGGUACGGCCGCCACUCGUACGGCCUCCUACUGGACGGGAAACCGUCG [ETA NP+V+V2 #28] | 33.2
17 | GUAUUUAUAUGAAGGAGCGUCGAAAAUGGGUAAACAUGAGGAUCACCCAUGUAAAGGGAACGACAGGUAGGUCGCAUAUGGAUAC [AstromonsSSArgB#25] | 239
18 | ACCAGCACACAUGAUACCAGCGACAUGAGGAUCACCCAUGUACGGCGUGUAUCGAAAGGUUGCCCUUGGCAGCAUGAUAGUGCUA [Ratiarla] | 12.8
19 | CAUACUUUAGUAUGACAUGUGGGCAGUGAUACCAGAUACGAAAGUAUCCCUUGGCAGCACAACAUGAGGAUCACCCAUGUAAUUA [Theophylline A 2] | 37.3
20 | UGUAUGGACUGAAGGAGCGGGUUGAUAACAUGAGGAUCACCCAUGUAAAAGGCGAAAGCCGCCCAGGUAGGUCGCAGUCCAUACU | 10.9
21 | UCGCUCUGGGUGAAUUCCGGAGAUGUGGAAGGAGCGGACGAAAGUCCAGGUAGGUCGCCAUCGAACAUGAGGAUCACCCAUGUAC [Same State - Arginine A (Freestyle 24)] | 93.7
22 | AUAUUAGACCUGGAUACCAGCGACAUGAGGAUCACCCAUGUAUGUGCAUCAGCCAUGAUAUGCCCUUGGCAGCCACCGAGGUCGU [YYTMULLIN] | 15.1
23 | UGGGUUGGACCAGGAAAUGGUCUGACGCACCGAGGACCGGUACGGCCGCCACUCGGCCGUACAUGAGGAUCACCCAUGUCGGUGU [#1 Same State - Tryptophan A Attempt #13 (HarryS)] | 740
24 | AACCAUCUCGGCGAUACCAGUGCCUACGAGUACAUGAGGAUCACCCAUGUAGGUGACCGACACCCUUGGCAGCGCGAUUGAGUCA [theeternabot_sameState_MS2_Theo_B_45] | 129
25 | ACCUGUACGAAAAGUGCAGGACAUGGAAAUCGAGGACCGGUACGGCCGCCACUCGUAUAAAACAAGUGGAUCACCCUUGUCCAUG [TrypAS 2 #AlternativeMS2 #Zipper #StaticStem] | 1360
26 | GCAUUACAUGAGGAUCACCCAUGUCUAGAUACCAGAUUUGUUUGAAUCCCUUGGCAGCUAGUGGACCACCGUACACGACAUACUA [theeternabot_sameState_MS2_Theo_A_17] | 44
27 | GCACGACAUGAGGAUCACCCAUGUGCAGAUACCAGUAAUGUAUAUUACCCUUGGCAGCUGAGUAGGUCUGGAGGGCUAUAGGUAA [Same State Theophylline A GF11] | 14.6
28 | AUGUCGUUGAAUAUAGCGGCUUGGAGUGAUACCAGCAUGAUCCAAUGCCCUUGGCAGCAUAACAUGAGGAUCACCCAUGUUCCAG [SSTheo A #26] | 30.1
29 | CCAUGCGUAGGAAGGAGCGCAUACUUCACAUGAGGAUCACCCAUGUCGAGACGUGAGUCAGUGCAGGUAGGUCGCCUACGCAUGG [Same State - Arginine B (Freestyle 27)] | 19.4
